Source: US20250262210A1 (TRUSTEES OF COLUMBIA UNIVERSITY IN THE CITY OF NEW YORK, published 2025)

Assays:
Assay in all cases: IP/MS, LZTR1 R810W-FLAG, U87
DIP2B = DIP2B (human, UniProt Q9P265 1-1576)
In short: (§1)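 Extracted peptides in 3% acetonitrile/0.1% formic acid ran on a 50 cm C18 column into an Orbitrap Fusion, with MaxQuant identification and spectral counting.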

PTPN23 = PTPN23 (human, UniProt Q9H3S7 1-1636)
In short: as §1

RTTN = RTTN (human, UniProt Q86VV8 1-2226, limits assumed)
In short: as §1

WDR6 = target: T1, WDR6 (human, UniProt Q9NNW5 1-1121)
T1 sequence (looked up): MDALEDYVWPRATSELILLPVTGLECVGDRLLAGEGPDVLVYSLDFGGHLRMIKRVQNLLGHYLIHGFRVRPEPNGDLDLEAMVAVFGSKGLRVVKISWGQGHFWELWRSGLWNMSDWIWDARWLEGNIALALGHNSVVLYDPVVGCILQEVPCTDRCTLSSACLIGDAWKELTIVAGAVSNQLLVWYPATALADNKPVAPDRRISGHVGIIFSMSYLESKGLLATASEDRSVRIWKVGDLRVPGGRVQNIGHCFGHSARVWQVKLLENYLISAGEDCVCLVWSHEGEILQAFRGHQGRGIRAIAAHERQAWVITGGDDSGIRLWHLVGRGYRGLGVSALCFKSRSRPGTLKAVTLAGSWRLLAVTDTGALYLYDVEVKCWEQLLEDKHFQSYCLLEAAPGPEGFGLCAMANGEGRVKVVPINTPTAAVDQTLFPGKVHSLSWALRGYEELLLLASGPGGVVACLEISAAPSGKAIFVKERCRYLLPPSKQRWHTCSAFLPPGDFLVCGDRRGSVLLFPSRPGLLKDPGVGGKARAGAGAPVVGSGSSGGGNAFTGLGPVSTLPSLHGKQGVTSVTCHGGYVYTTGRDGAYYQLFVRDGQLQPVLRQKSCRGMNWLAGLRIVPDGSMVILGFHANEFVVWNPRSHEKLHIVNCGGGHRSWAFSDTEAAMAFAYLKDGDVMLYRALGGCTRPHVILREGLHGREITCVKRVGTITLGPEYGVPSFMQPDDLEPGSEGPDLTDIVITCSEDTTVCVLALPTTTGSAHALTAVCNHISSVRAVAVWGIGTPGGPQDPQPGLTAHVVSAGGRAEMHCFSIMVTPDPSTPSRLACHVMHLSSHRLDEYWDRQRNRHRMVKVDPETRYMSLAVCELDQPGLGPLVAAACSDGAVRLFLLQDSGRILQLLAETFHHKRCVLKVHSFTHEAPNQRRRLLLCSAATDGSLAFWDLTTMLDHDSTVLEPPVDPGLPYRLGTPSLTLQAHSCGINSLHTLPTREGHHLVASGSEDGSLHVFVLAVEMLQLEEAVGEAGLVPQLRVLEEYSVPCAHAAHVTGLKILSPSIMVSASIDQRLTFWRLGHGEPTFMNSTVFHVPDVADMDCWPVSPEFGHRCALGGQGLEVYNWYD
In short: as §1

Measured: binding result

Chain of DIP2B (Q9P265 whole entry, the tested form may be a part): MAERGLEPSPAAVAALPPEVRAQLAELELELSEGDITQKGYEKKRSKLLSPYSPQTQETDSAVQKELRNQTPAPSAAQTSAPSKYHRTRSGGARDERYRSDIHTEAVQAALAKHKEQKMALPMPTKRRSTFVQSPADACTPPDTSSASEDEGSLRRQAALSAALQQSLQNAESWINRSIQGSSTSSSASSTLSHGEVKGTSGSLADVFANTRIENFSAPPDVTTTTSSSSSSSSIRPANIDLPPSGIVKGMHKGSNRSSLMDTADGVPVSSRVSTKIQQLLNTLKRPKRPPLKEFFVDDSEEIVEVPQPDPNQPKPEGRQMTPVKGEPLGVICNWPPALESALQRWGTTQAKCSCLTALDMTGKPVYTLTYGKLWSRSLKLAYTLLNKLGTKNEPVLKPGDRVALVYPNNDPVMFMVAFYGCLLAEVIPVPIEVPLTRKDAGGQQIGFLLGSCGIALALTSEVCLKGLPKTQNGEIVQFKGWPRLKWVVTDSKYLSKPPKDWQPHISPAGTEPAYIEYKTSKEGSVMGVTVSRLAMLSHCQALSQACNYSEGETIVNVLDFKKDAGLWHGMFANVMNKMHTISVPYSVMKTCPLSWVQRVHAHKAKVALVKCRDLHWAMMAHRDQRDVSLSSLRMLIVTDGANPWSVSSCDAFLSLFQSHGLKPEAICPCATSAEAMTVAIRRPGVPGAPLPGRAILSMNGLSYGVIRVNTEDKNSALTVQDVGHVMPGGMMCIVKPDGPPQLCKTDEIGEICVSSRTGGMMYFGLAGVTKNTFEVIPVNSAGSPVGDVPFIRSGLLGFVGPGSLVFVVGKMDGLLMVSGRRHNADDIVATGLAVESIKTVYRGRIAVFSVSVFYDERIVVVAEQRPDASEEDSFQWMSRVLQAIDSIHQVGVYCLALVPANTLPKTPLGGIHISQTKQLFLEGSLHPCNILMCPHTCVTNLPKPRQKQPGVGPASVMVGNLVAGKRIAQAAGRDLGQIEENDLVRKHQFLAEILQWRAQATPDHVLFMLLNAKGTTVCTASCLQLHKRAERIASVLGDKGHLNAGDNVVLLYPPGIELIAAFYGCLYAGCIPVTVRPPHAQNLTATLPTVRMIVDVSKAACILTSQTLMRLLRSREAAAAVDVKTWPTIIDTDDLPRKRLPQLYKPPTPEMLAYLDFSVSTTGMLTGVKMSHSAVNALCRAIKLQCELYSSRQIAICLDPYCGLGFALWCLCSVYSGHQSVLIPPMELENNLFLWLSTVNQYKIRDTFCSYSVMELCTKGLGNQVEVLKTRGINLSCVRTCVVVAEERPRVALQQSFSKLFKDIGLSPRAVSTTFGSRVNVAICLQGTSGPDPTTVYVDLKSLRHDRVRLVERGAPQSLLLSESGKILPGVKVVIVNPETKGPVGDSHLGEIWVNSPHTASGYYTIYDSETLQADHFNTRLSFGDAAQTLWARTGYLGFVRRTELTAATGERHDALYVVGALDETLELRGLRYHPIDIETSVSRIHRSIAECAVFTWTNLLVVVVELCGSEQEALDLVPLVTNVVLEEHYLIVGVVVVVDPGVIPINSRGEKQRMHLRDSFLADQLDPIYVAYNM
Chain of PTPN23 (Q9H3S7 whole entry): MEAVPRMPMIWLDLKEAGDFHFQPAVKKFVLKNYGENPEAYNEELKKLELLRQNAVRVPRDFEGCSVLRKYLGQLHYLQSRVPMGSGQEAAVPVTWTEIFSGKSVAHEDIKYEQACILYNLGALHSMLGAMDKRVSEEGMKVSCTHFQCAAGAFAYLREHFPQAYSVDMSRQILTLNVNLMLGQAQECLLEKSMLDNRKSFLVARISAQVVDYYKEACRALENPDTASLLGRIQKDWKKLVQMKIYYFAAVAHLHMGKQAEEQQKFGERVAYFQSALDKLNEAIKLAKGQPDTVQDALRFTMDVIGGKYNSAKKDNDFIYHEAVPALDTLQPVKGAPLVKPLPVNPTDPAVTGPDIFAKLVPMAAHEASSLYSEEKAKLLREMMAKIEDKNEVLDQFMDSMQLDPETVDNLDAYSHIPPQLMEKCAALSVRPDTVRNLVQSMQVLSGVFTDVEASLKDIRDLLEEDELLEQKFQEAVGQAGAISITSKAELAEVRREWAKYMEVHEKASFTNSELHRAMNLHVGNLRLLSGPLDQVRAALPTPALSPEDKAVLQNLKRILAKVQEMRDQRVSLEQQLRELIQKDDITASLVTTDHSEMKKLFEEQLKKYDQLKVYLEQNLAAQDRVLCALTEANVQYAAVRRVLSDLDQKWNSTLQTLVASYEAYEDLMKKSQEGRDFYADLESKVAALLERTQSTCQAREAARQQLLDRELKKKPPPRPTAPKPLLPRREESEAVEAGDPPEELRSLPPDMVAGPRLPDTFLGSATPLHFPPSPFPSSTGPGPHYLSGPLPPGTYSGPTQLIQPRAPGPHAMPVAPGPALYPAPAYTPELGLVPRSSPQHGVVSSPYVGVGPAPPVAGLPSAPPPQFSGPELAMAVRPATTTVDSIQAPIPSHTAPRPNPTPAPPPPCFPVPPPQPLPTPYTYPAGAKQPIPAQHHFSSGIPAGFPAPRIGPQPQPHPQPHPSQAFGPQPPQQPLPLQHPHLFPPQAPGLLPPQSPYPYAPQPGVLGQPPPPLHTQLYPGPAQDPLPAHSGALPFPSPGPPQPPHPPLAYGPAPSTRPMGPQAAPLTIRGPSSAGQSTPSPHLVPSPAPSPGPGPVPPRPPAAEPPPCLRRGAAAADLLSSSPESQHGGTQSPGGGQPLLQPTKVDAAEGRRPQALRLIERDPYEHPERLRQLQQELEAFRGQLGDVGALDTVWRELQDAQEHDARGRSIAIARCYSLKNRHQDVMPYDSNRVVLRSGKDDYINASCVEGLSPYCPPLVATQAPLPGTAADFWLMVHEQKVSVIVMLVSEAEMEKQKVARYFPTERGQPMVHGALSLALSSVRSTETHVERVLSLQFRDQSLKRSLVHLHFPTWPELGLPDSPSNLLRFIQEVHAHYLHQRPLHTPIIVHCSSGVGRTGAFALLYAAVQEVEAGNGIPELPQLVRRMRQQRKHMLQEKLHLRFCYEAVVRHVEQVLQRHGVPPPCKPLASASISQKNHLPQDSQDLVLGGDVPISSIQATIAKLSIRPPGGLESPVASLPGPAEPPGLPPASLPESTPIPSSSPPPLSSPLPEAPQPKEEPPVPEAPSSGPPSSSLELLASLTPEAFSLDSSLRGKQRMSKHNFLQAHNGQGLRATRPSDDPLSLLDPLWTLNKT

B1: LZTR1 R810W-FLAG (other, human, UniProt Q8N653 1-840, looked up)
chain: MAGPGSTGGQIGAAALAGGARSKVAPSVDFDHSCSDSVEYLTLNFGPFETVHRWRRLPPCDEFVGARRSKHTVVAYKDAIYVFGGDNGKTMLNDLLRFDVKDCSWCRAFTTGTPPAPRYHHSAVVYGSSMFVFGGYTGDIYSNSNLKNKNDLFEYKFATGQWTEWKIEGRLPVARSAHGATVYSDKLWIFAGYDGNARLNDMWTIGLQDRELTCWEEVAQSGEIPPSCCNFPVAVCRDKMFVFSGQSGAKITNNLFQFEFKDKTWTRIPTEHLLRGSPPPPQRRYGHTMVAFDRHLYVFGGAADNTLPNELHCYDVDFQTWEVVQPSSDSEVGGAEVPERACASEEVPTLTYEERVGFKKSRDVFGLDFGTTSAKQPTQPASELPSGRLFHAAAVISDAMYIFGGTVDNNIRSGEMYRFQFSCYPKCTLHEDYGRLWESRQFCDVEFVLGEKEECVQGHVAIVTARSRWLRRKITQARERLAQKLEQEAAPVPREAPGVAAGGARPPLLHVAIREAEARPFEVLMQFLYTDKIKYPRKGHVEDVLLIMDVYKLALSFQLCRLEQLCRQYIEASVDLQNVLVVCESAARLQLSQLKEHCLNFVVKESHFNQVIMMKEFERLSSPLIVEIVRRKQQPPPRTPLDQPVDIGTSLIQDMKAYLEGAGAEFCDITLLLDGHPRPAHKAILAARSSYFEAMFRSFMPEDGQVNISIGEMVPSRQAFESMLRYIYYGEVNMPPEDSLYLFAAPYYYGFYNNRLQAYCKQNLEMNVTVQNVLQILEAADKTQALDMKRHCLHIIVHQFTKVSKLPTLWSLSQQLLLDIIDSLASHISDKQCAELGADI
notes: Stably expressed in U87 cells by lentivirus; also called LZTR1-FLAG-R810W; LZTR1 RW; not shown: FLAG tag
binds: all assays above
